Among the data in PMC8584774 are Kd and percent of C2 in the pellet fraction values, retold here.

For the assay, the target named is α-cardiac actin (F-actin) (Sus scrofa). As to the kind of experiment: co-sedimentation; high-speed cosedimentation; F-actin (0–40 µM) with 5 µM C0–C2 or 30 µM C2; 25 mM HEPES pH 7.3, 25 mM KCl, 5 mM MgCl2, 1 mM EGTA; 30 min at room temperature; 55,000 rpm 30 min; SDS-PAGE densitometry of supernatant and pellet; quadratic fit.

For “MyBPC C0–C2 wt (cardiac myosin-binding protein C, N-terminal fragment with subdomains C0 to C2) (from UniProt Q14896 1-452) (domain or fragment)”, the Kd amounted to 3200 nM.

Take “MyBPC C0–C2 D389V (from UniProt Q14896 1-452) (domain or fragment)”: the Kd is 2800 nM.

“MyBPC C2 wt (isolated IgI-like C2 domain of cardiac myosin-binding protein C) (from UniProt Q14896 362-452) (domain or fragment)” yielded a percent of C2 in the pellet fraction of less than 2%.

Usually Kd stands for a measure of binding affinity in units of concentration. Lower therefore signals higher affinity.
